Laboratory results taken from US12440565 (ZSKY BIOTECH, dated 2025).

Biological target: CD40 on the surface of mature dendritic cells (mDC) (human, UniProt P25942 21-277)
Experiment: cell-based or functional assay

Sequence of CD40 on the surface of mature dendritic cells (mDC) (P25942 21-277): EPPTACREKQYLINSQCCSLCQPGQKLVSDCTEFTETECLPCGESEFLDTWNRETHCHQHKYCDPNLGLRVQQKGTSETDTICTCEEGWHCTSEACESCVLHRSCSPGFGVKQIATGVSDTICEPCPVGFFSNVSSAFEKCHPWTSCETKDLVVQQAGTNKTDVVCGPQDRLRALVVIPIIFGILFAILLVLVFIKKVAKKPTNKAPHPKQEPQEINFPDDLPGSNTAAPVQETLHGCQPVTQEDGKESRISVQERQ

increase rate of CD83 positive ratio over control, bispecific antibody: 19%
B1: CD40-PD-L1-IgG4 bispecific antibody (bispecific antibody)
light 1: DIQMTQSPSSLSASVGDRVTIKCQASQSISSRLAWYQQKPGKPPKLLIYRASTLASGVPSRFSGSGSGTDFTLTISSLQPEDVATYYCQCTGYGISWPIGGGTKVEIKRTVAAPSVFIFPPSDEQLKSGTASVVCLLNNFYPREAKVQWKVDNALQSGNSQESVTEQDSKDSTYSLSSTLTLSKADYEKHKVYACEVTHQGLSSPVTKSFNRGEC
heavy 1: not shown
light 2: QVQLVQSGAEVKKPGASVKVSCKASGYTFTSYWMHWVRQAPGQGLEWMGRIGPNSGFTSYNEKFKNRVTMTRDTSTSTVYMELSSLRSEDTAVYYCARGGSSYDYFDYWGQGTTVTVSSASVAAPSVFIFPPSDRKLKSGTASVVCLLNNFYPREAKVQWKVDNALQSGNSQESVTEQDSKDSTYSLSSTLTLSKADYEKHKVYACEVTHQGLSSPVTKSFNRGEC
heavy 2: DIVLTQSPASLAVSPGQRATITCRASESVSIHGTHLMHWYQQKPGQPPKLLIYAASNLESGVPARFSGSGSGTDFTLTINPVEAEDTANYYCQQSFEDPLTFGQGTKLEIKASTKGPSVFPLAPCSRSTSESTAALGCLVEDYFPEPVTVSWNSGALTSGVHTFPAVLQSSGLYSLSSVVTVPSSSLGTQTYTCNVDHKPSNTKVDEKVESKYGPPCPPCPAPEFEGGPSVFLFPPKPKDTLMISRTPEVTCVVVDVSQEDPEVQFNWYVDGVEVHNAKTKPREEQFNSTYRVVSVLTVLHQDWLNGKEYKCKVSNKGLPSSIEKTISKAKGQPREPQVCTLPPSQEEMTKNQVSLSCAVKGFYPSDIAVEWESNGQPENNYKTTPPVLDSDGSFFLVSRLTVDKSRWQEGNVFSCSVMHEALHNHYTQKSLSLSLGK
